The target in experiment [1] is HLA-C*06:02 on single-antigen beads. Nature of the experiment: Luminex single-antigen HLA bead binding assay.
The target in experiment [2] is HLA-C*03:04 on single-antigen beads. Put plainly: Luminex single-antigen HLA bead binding assay.

The Kd is the constant that tells how readily two partners part at equilibrium. As to “soluble KIR2DL2*001 Fc fusion protein (sKIR2DL2*001) (from UniProt P43627 22-245)”, the MFI at 20 μg/ml in experiment [1] is below 500 MFI. The substance also yielded a Kd in experiment [2] of 200 nM.

On to “soluble KIR2DL2*003 Fc fusion protein (sKIR2DL2*003) (from UniProt P43627 22-245)”, for which the values for the Kd in experiment [1] and in experiment [2] were 24 µM and 700 nM, respectively. This substance came in with an MFI at 20 μg/ml in experiment [1] below 500 MFI.

Regarding “soluble KIR2DL2*006 Fc fusion protein (sKIR2DL2*006) (from UniProt P43627 22-245)”, in experiment [1], the Kd turned out to be 4.3 µM and the MFI at 20 μg/ml was below 500 MFI.

“soluble KIR2DL3*001 Fc fusion protein (sKIR2DL3*001) (from UniProt P43628 22-245)”: in experiment [2], the Kd worked out at 1000 nM. That is a single-digit micromolar value.

Turning to “soluble KIR2DL3*002 Fc fusion protein (sKIR2DL3*002) (from UniProt P43628 22-245)”, the dissociation constant Kd in experiment [2] was determined as 1200 nM.

In experiment [1], “soluble KIR2DL3*005 Fc fusion protein (sKIR2DL3*005) (from UniProt P43628 22-245)” returned a Kd of 7 µM and an MFI at 20 μg/ml below 500 MFI. This substance also yielded a Kd in experiment [2] of 100 nM.
